From paper PMC6272748, “Cysteine Specific Targeting of the Functionally Distinct Peroxiredoxin and Glutaredoxin Proteins by the Investigational Disulfide BNP7787” (Molecules, 2015)

Target: the molecule itself
Test: crystal structure; co-crystal of BNP7787-modified Prx 4 from 1.6 M ammonium sulfate, 0.1 M MES pH 6.5, 10% dioxane; 2.3 Å, space group C2; five molecules in the asymmetric unit, decamer generated by crystal symmetry

B1: human peroxiredoxin 4 (Prx 4) carrying a BNP7787-derived mesna adduct (enzyme, UniProt Q13162 79-271, looked up)
chain: AKISKPAPYWEGTAVIDGEFKELKLTDYRGKYLVFFFYPLDFTFVCPTEIIAFGDRLEEFRSINTEVVACSVDSQFTHLAWINTPRRQGGLGPIRIPLLSDLTHQISKDYGVYLEDSGHTLRGLFIIDDKGILRQITLNDLPVGRSVDETLRLVQAFQYTDKHGEVCPAGWKPGSETIIPDPAGKLKYFDKLN
modifications: BNP7787-derived mesna mixed disulfide on Cys 124 (in all molecules of the decamer); whole protein mass spectrometry consistent with two mesna adducts, the second proposed on Cys 245 (not visible in the electron density)
notes: Peroxiredoxin 4, human, wild type; No density beyond residue 242 in the crystal; TEV cleavage is described only for Grx 1; also called Prx IV; BNP7787-modified Prx 4; source: E. coli BL21(RIPL), purified (Ni2+ IMAC, size exclusion), reduced with DTT, then incubated with 40 mM BNP7787; copies: 10
stoichiometry N: 10
